1 molecule from patent US20130337438A1 (JAPAN HEALTH SCIENCES FOUNDATION, published 2013) can be followed below.

One experiment concerns the target T1, HPV33 L1/L2-capsid (human papillomavirus type 33, UniProt P06418 1-467; P06416 1-499).
T1 construct: Capsid of co-expressed L1 and L2 from 293FT cells; The pseudovirus is the same capsid with a reporter plasmid; also called L1/L2-capsid of type 33; HPV33 pseudovirus
T1 sequence 1: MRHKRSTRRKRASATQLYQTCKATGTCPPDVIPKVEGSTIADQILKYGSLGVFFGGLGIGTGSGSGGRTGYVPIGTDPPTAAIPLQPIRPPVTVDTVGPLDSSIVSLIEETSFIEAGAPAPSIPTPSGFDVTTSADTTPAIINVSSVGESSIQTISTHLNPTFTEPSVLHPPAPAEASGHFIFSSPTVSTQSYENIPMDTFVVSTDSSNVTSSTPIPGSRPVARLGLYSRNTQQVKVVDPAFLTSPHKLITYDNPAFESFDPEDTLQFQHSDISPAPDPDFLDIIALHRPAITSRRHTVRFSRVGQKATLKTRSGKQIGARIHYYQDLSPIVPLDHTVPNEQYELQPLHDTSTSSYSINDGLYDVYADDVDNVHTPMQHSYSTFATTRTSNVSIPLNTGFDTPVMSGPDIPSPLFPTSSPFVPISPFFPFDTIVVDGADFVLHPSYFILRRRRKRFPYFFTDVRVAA
T1 sequence 2: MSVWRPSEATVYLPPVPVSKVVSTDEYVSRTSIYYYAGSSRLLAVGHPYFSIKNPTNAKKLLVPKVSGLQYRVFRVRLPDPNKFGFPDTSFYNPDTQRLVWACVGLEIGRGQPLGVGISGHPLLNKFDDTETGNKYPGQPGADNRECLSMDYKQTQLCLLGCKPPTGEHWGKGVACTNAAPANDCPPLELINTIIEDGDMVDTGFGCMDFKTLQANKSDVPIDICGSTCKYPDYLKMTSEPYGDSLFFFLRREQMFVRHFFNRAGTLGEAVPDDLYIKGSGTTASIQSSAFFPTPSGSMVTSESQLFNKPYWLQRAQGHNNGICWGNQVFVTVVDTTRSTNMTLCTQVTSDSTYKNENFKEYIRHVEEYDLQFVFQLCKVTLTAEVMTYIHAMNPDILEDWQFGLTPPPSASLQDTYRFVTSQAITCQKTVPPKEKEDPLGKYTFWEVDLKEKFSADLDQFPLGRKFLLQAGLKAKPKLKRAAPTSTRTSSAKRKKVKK
Nature of the experiment: ELISA on immobilized L1/L2-capsid, ascites 1:100.

A further experiment deals with T2, HPV35 L1/L2-capsid (human papillomavirus type 35, UniProt P27234 1-469; P27232 1-502).
T2 construct: Capsid of co-expressed L1 and L2 from 293FT cells; The pseudovirus is the same capsid with a reporter plasmid; also called L1/L2-capsid of type 35; HPV35 pseudovirus
T2 sequence 1: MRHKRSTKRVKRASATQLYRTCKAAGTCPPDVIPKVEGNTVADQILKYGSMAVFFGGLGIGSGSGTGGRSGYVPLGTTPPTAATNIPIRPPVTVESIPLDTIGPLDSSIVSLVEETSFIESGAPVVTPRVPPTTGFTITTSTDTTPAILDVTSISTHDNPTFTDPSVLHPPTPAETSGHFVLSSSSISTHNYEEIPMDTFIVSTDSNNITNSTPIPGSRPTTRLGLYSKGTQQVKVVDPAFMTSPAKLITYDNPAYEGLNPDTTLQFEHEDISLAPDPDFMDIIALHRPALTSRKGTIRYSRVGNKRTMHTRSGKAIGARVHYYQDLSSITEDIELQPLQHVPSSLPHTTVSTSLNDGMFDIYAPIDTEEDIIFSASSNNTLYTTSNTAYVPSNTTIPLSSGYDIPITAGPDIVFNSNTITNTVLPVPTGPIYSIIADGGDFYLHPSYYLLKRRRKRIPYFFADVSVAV
T2 sequence 2: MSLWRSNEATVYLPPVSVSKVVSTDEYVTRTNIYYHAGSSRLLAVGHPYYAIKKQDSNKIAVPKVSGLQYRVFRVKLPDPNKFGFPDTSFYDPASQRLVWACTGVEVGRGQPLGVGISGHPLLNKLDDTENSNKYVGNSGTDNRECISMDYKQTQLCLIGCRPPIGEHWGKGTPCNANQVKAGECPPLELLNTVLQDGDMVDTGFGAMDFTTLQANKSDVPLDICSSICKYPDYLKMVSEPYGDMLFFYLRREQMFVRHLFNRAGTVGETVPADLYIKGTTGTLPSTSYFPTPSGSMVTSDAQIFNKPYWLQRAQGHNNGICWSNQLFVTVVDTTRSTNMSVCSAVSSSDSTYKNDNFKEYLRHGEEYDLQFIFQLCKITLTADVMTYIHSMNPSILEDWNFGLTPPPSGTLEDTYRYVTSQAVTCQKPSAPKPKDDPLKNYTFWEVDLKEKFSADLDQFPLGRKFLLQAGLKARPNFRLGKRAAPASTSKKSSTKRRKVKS
Briefly: ELISA on immobilized L1/L2-capsid, ascites 1:100.

B1: monoclonal antibody 24B (antibody, V domains shown)
VH: EVQLQQSGTVLARPGASVKMSCKASVYSFPSNWMHWVKQRPGQGLEWIGAIYPGTGATRYNQKFKDKAKLTAVTSADTAYMELSSLTDEDSAVYYCTGYSLYWGQGTILTVSS
VL: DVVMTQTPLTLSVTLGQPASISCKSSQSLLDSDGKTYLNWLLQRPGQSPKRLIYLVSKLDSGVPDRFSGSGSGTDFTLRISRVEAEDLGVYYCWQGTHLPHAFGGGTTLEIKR
notes: Used as mouse ascites or as antibody purified from ascites; also called Mouse-Mouse hybridoma 24B (FERM BP-11305)
Regarding B1, the binding result with HPV33 L1/L2-capsid and with HPV35 L1/L2-capsid was “binds” in each case.
